Tests used:
[1] = biological target: the molecule itself; assay: crystal structure; cyto-EccD1mt alone; sitting drop, 0.1 M Tris-HCl pH 8.5, 0.2 M Mg chloride, 30 % PEG4000; two molecules in the asymmetric unit; 1.88 Å
[2] = biological target: the molecule itself; assay: crystal structure; MBP-cyto-EccD1mt fusion, maltose-bound; sitting drop, 0.1 M HEPES pH 7.5, 1.4 M Na citrate; two molecules in the asymmetric unit; 2.20 Å

Protein | binding result [1] | binding result [2]
cytoplasmic domain of EccD1 from M. tuberculosis (cyto-EccD1mt) (domain or fragment, also called Rv3877; not shown: His6, N-terminal, cleaved) ATTRVTILTGRRMTDLVLPAAVPMETYIDDTVAVLSEVLEDTPADVLGGFDFTAQGVWAFARPGSPPLKLDQSLDDAGVVDGSLLTLVS | binds | 
cyto-EccD1mt fused to maltose binding protein (MBP-cyto-EccD1mt) (domain or fragment, EccD1 (Rv3877) of Mycobacterium tuberculosis H37Rv, cytoplasmic ubiquitin-like domain, residues 21-109, the same DNA fragment as in m1, placed after MBP; also called MBP fusion protein; not shown: His6, N-terminal, cleaved; MBP, N-terminal, kept) ATTRVTILTGRRMTDLVLPAAVPMETYIDDTVAVLSEVLEDTPADVLGGFDFTAQGVWAFARPGSPPLKLDQSLDDAGVVDGSLLTLVS |  | binds

Reference: article PMC4769845, “Structures of EccB1 and EccD1 from the core complex of the mycobacterial ESX-1 type VII secretion system” (BMC Structural Biology, 2016)
